Reference: patent US20210252159A1, “CONJUGATES OF CARTILAGE-HOMING PEPTIDES” (priority 2018, published 2021)
Positions of bridges follow the written chain, without caps; N, C: chain ends. Residues, ends and D or L forms follow the SMILES beside them. *: point of attachment. X3 = C[C@@H]1C[C@H]2[C@@H]3CCC4=CC(=O)C=C[C@]4(C)[C@@]3(F)[C@@H](O)C[C@]2(C)[C@@]1(O)C(=O)COC(=O)CCCC(=O)*

How the values were obtained:
[1] = Hydrolysis assay of peptide-drug conjugates in PBS (free Dex by LC/MS); assay type: physicochemical; details: 37° C.
Experimental: (§1) In order to determine hydrolysis rates, conjugates can be diluted in PBS, rat plasma, or human plasma and incubated at 37 degrees. Samples can be taken at designated time-points (e.g., 1, 2, 3, 5, 10, 15, 20, 25, 30, 45, 60, or 90 minutes and/or hours after administration). Internal standards such as triamcinolone acetonide (TAA) can be added as an internal standard, and then active agent/TAA can be extracted using acetonitrile, for example. The samples can be dried down, reconstituted, and analyzed by LC/MS. Data can be normalized using Dex AUC/TAA AUC. Percent hydrolysis can be calculated using the average ratio for active agent AUC/TAA AUC at a time point of maximal drug release. A general method can include using a lyophilized, purified peptide-drug conjugates reconstituted in DMSO following production to generate stock solution at 20 mg/mL. Each conjugate stock can be brought to 0.25 mg/mL in each hydrolysis condition (1×DPBS, human plasma and rat plasma) in triplicate and rocked at 37° C. To quantitate free active agent, 100 μl of the hydrolyzed conjugate solution can be transferred into 1 mL acetonitrile at 4° C. at which time all plasma proteins and intact conjugates can precipitate. This can be performed repeatedly to generate a series of time points (0 hr, 0.5 hr, 1 hr, 2 hr, 4 hr, 6 hr, 8 hr, 24 hr, 32 hr). The acetonitrile solution can be spun at 17,000 g for 5 minutes, and the supernatant removed and added to a 96 well block. The pellet can then be resuspended in 500 μl acetonitrile and re-pelleted as before. The supernatant can be removed and added to the same well in the block. Samples can be prepared for analysis by drying under a nitrogen stream followed by reconstitution in 110 μl 45:55 ACN:Citrate 10 mM pH 5.5. To ensure optimal recovery the block can be shaken via plate shaker at 7,000 rpm for 5 minutes during the reconstitution step. Prior to LC/MS the samples can be transferred to a 96 well plate and centrifuged at 6,500 g for 15 minutes. Analysis can be performed on an Agilent 1260 Infinity series HPLC with inline 6120 single quad MS using acetonitrile, water (+0.1% TFA) gradient (shown below) on an InfinityLab Poroshell SB-C18 column. Quantification of free active agent (or drug) can be achieved through integration of active agent peaks of the TIC.
(§2) Lyophilized, purified peptide-drug conjugates were reconstituted in DMSO following production to generate stock solution at 20 mg/mL. Each conjugate stock was brought to 0.25 mg/mL in each hydrolysis condition (1×DPBS, human plasma and rat plasma) in triplicate and rocked at 37° C.
(§3) To quantitate free dexamethasone (Dex), 100 μl of the hydrolyzed conjugate solution was transferred into 1 mL acetonitrile at 4° C. at which time all plasma proteins and intact conjugates precipitated. This was performed repeatedly to generate a series of time points (0 hr, 0.5 hr, 1 hr, 2 hr, 4 hr, 6 hr, 8 hr, 24 hr, 32 hr). The corticosteroid triamcinolone acetonide (25 μl, 0.1 mg/mL in 45:55 ACN:Citrate 10 mM pH 5.5) was supplemented into the acetonitrile solution as an internal standard. The acetonitrile solution was spun at 17,000 g for 5 minutes, and the supernatant removed and added to a 96 well block. The pellet was resuspended in 500 μl acetonitrile and re-pelleted as before. The supernatant was removed and added to the same well in the block.
Samples were prepared for analysis by drying under a nitrogen stream followed by reconstitution in 110 μl 45:55 ACN:Citrate 10 mM pH 5.5. To ensure optimal recovery the block was shaken via plate shaker at 7,000 rpm for 5 minutes during the reconstitution step. Prior to LC/MS the samples were transferred to a 96 well plate and centrifuged at 6,500 g for 15 minutes. Analysis was performed on an Agilent 1260 Infinity series HPLC with inline 6120 single quad MS using a gradient of 0.1% TFA in acetonitrile (solvent B), and 0.1% TFA (aq) (solvent A) gradient (shown below) on an InfinityLab Poroshell SB-C18 column. […]

[2] = Hydrolysis assay of peptide-drug conjugates in human plasma (free Dex by LC/MS); assay type: in vitro ADME; details: 37° C., release of free Dex, time points to 32 hr, read-out: Half-life (hours) as measured in the hydrolysis experiments (converted)
Experimental: as §1, with “To ensure optimal recovery the block can be shaken via plate shaker at 7,000 rpm for 5 minutes during the reconstitution step. Prior to LC/MS the samples can be transferred to a 96 well plate and centrifuged at 6,500 g for 15 minutes. Analysis can be performed on an Agilent 1260 Infinity series HPLC with inline 6120 single quad MS using acetonitrile, water (+0.1% TFA) gradient (shown below) on an InfinityLab Poroshell SB-C18 column.” left out, “TIC. […]” for “TIC.”
To quantitate free dexamethasone (Dex), 100 μl of the hydrolyzed conjugate solution was transferred into 1 mL acetonitrile at 4° C. at which time all plasma proteins and intact conjugates precipitated. […]

CIA rats = test system: CIA rats
Experimental: Arthritis was induced in 9-week-old female Lewis rats (Envigo or Charles River Laboratories) by intradermal injection while anesthetized of 400 ug bovine type II collagen (Chondrex Inc, Redmond Wash.) in 2 adjacent 200 ul (1 mg/ml) doses on day 0. Collagen is prepared for injection by dissolving at 2 mg/ml in 0.01N glacial acetic acid in sterile water and rocking at 4° C. overnight then emulsifying in Freund's incomplete adjuvant (IFA, Sigma Aldrich). To emulsify, equal volumes of collagen solution and IFA are drawn up into separate syringes, which are joined by a 3-way stopcock. While on ice, the collagen and IFA are mixed by pressing between the two syringes rapidly for 10 minutes. Quality of the emulsification is tested after 10 minutes of mixing by dropping a small amount of mixture in water. A properly emulsified solution will remain as a discrete droplet and not disperse in the water. On day 7, rats are challenged with a second intradermal injection of 100 ug of collagen in 100 ul, 1 mg/ml, collagen in IFA solution prepared fresh. Body weight and ankle diameter measurements are recorded daily from day 7 through the end of the study. Ankle diameter was measure by a single researcher using a Fowler Digitrix 2 micrometer. Three measurements of each ankle were taken of the lateral dimension at the tarsus of lightly anesthetized rats. The reported ankle diameter measurement is the mean of the three measurements.
Arthritis was induced as described in four cohorts of 9-week-old female Lewis rats. Rats were randomly placed in treatment groups, balancing compound and dose groups across cohorts. […] Rats were dosed by tail vein injection on days 11 and 12 and euthanized on day 13 by CO2 asphyxiation. Immediately after cessation of respiratory movement, blood was collected by cardiac puncture, synovial fluid was collected from both knees, one hind limb was fixed in formalin and the alternate ankle was frozen on dry ice. Thymus, spleen, liver, and kidney weights were recorded.
CIA Response study design.
The aim of the study was to test the 4 conjugates with various linkers at two different doses in vivo in CIA rats to assess the following: ability to deliver sufficient dexamethasone to the joint to show functionality and potential therapeutic effect in the disease model.
CIA was induced in female Lewis rats (as described above, see EXAMPLE 21). Body weight and ankle joint diameters were measured on day 0 and then daily from day 7 until euthanasia. […] At euthanasia, synovial fluid was collected from both knees, one hind limb was fixed in formalin and the alternate ankle was frozen on dry ice. Thymus, spleen, liver, and kidney weights were recorded. Blood samples were submitted for CBC/Chemistry analysis, and the remaining plasma was frozen.

[3] = Hydrolysis assay of peptide-drug conjugates in rat plasma (free drug by LC/MS); assay type: in vitro ADME; details: 37° C.
Experimental: Peptide-drug conjugate peptide(SEQ ID NO: 105)-DMA-dCIC was incubated in rat plasma at 37° C. Samples were removed at regular intervals, processed by solvent extraction, and analyzed by LC/MS to quantitate free dCIC. 11 time-points were measured between 5 min and 56 hours with 3 replicates per time point. The assay was repeated two times.
as §1, §2, §3
Samples were prepared for analysis by drying under a nitrogen stream followed by reconstitution in 110 μl 45:55 ACN:Citrate 10 mM pH 5.5. To ensure optimal recovery the block was shaken via plate shaker at 7,000 rpm for 5 minutes during the reconstitution step. […]

## CC[C@H](C)[C@@H]1NC(=O)[C@@H]2CSSC[C@H](NC(=O)[C@H](CCCNC(=N)N)NC(=O)[C@@H](NC(=O)[C@H](CC(N)=O)NC(=O)[C@@H](NC(=O)[C@@H]3CCCN3C(=O)[C@@H](NC(=O)CNC(=O)[C@H](CO)NC(=O)CNC(=O)CCCC(=O)OCC(=O)[C@@]3(O)[C@H](C)C[C@H]4[C@@H]5CCC6=CC(=O)C=C[C@]6(C)[C@@]5(F)[C@@H](O)C[C@@]43C)C(C)C)[C@@H](C)CC)C(C)C)C(=O)N[C@@H](CCCNC(=N)N)C(=O)NCC(=O)N[C@@H](CO)C(=O)N[C@@H](CCCNC(=N)N)C(=O)N[C@@H](CC(=O)O)C(=O)N[C@H]3CSSC[C@H](NC(=O)[C@H](CCCNC(=N)N)NC(=O)[C@H](CO)NC(=O)[C@H](CC(N)=O)NC1=O)C(=O)N[C@@H](Cc1c[nH]cn1)C(=O)N[C@H](C(=O)N[C@H](C(=O)N1CCC[C@H]1C(=O)O)[C@@H](C)O)CSSC[C@H](NC(=O)[C@@H]1CCCN1C(=O)[C@H](CC(=O)O)NC(=O)[C@H](CC(C)C)NC3=O)C(=O)N[C@@H](CCCNC(=N)N)C(=O)N[C@@H](CCCNC(=N)N)C(=O)N[C@@H](C)C(=O)NCC(=O)N[C@@H](CCSC)C(=O)N[C@@H](CCCNC(=N)N)C(=O)N[C@@H](Cc1ccccc1)C(=O)NCC(=O)N[C@@H](CCCNC(=N)N)C(=O)N2 [Compound 23, Peptide(SEQ ID NO: 105)-glutaric acid-Dex] (X3-GSGVPINVRCRGSRDCLDPCRRAGMRFGRCINSRCHCTP-OH; disulfide 10-30, 16-35, 20-37 (inferred); C-terminus assumed)
[1]; PBS, release of free Dex, time points to 32 hr, read-out: Half-life (hours) as measured in the hydrolysis experiments (converted)
  half-life at 0.25 mg/mL: 6 h
[1]; in PBS, free Dex
  Hydrolysis half-life: 6 h
[2]
  half-life at 0.25 mg/mL: 1.7 h
CIA rats; 0.2 mg/kg and 0.5 mg/kg Dex equivalents IV days 11 and 12
  ankle swelling over time as compared to vehicle: reduction in ankle swelling
CIA rats; 0.2 mg/kg and 0.5 mg/kg dose
  spleen weight: reduction
  thymus weight: reduction
  total body weight: reduction
CIA rats; 0.2 mg/kg dose
  change in median ankle diameter between day 11 and day 13 as compared to vehicle: statistically significant reduction in ankle diameter
  difference from Dex in change in ankle diameter: no statistically significant difference
CIA rats; 0.2 mg/kg dose groups
  reduction in thymus weight as compared to vehicle: statistically significant
CIA rats; 1 mg/kg Dex equivalents IV, some rats
  mortality and tolerability: died overnight
[3]; Rat Plasma, release of free Dex, time points to 32 hr, read-out: Half-life (hours) as measured in the hydrolysis experiments (converted)
  half-life at 0.25 mg/mL: 1.9 h
[3]; in rat plasma, free Dex, read-out: Hydrolysis half-life (converted)
  half-life at 0.25 mg/mL: 1.9 h
